In article PMC12579213 (2025):

Assays:
Assay in all cases: BLI
GST-tagged Rac1 (Q61L) [1] = target: T1, GST-tagged Rac1 (Q61L) (UniProt P63000 1-192, Q61L)
GST-tagged RhoA (Q63L) [2] = target: T2, GST-tagged RhoA (Q63L) (UniProt P61586 1-193, Q63L)
[3] = target: T3, GST-tagged Rac1F37W (Q61L) (UniProt P63000 1-192, F37W | Q61L)
GST-tagged Rac1 (Q61L) [4] = target: T1, GST-tagged Rac1 (Q61L); remark: listed apart in the source
GST-tagged RhoA (Q63L) [5] = target: T2, GST-tagged RhoA (Q63L); remark: listed apart in the source
[6] = target: T3, GST-tagged Rac1F37W (Q61L); remark: listed apart in the source

Kd (GST-tagged Rac1 (Q61L) [1]): 56 nM | Kd (GST-tagged RhoA (Q63L) [2]): 31 nM | Kd [3]: 179 nM | koff (GST-tagged Rac1 (Q61L) [4]): 0.00156 s⁻¹ | koff (GST-tagged RhoA (Q63L) [5]): 0.000699 s⁻¹ | koff [6]: 0.00474 s⁻¹
B1: 6xHis-tagged RBD_(ROCK1) (domain or fragment)
chain: KDHTVSRLEEANSMLTKDIEILRRENEELTEKMKKAEEEYKLEKEEEISNLKAAFEKNINTERTLKTQAVNKLAEIMNRKDF
